The record followed here is the DeepSol protein solubility set.

The data set is described as follows: soluble on expression in E. coli; label from the status in PepcDB or PDB records.
On to “MSLPASARWQALQEVSILNTGAELPWGGKFSGVAKLIDDAFDAIEKDNEKLKGVLQRISGYAVNEDTLRGLIILFSDTHFTRPTYNGEPVHLGAKDILGHVYEYFLSRFAQAEGKRSGQYFTPKSIVSLIVEMLEPYSGRVYDPAMGSGGFFVQTERFITAHQGNINNVSIYGQEFNPTTWKLAAMNMAIRGIDYDFGKYNADSFTQPQHIDKKMDFIMANPHFNDKEWWNESLADDPRWAYGTPPKGNANFAWLQHMIYHLSPNGKIALLLANGSMSSQTNNEGEIRKAIINADLVECMVALPGQLFTNTKIPACIWFLNRNKKRKGEVLFIDARQIGYMKDRVLRDFTADDIAKIADTLHAWQTSDGYEDQAAFCKSATLEEIKNNDFVLTPGRYVGTAEQEDDGVPFAEKMQNLTALLKEQFAKSAELEAEIKKNLGGLGYEEGHHHHHH”, for which the “soluble on expression in E. coli” value is recorded as “not soluble”.

In the case of “SGQKASQQVAPKDSQEVLAMCEVVSAAISHAAQKLKEYLGFEYPLSRLCLAASSLTEVFLVHFVTFCQERGADEWLTTTKMTKHQAWLFGADWIWTFWGPDKEIRLQVAVQTLRMASLPLTDPKSCESRGEESWKKGRFDKLQEFCNLVGEDCLGLFIIFGVPGEPKAIRGVVLESVRNGMMESQLPGRKAVEQFVLETKDCVSIKELLGNCLSKRDGLSDMGRVYIRIL”, the “soluble on expression in E. coli” value was “soluble”.

With “MSLNLAKRILQGEQLTKETVLKIYEDTNIDTLDLLNEAYILRKHYFGKKVKLNMILNAKSGICPENCGYCGQSRDIKQKQRYALIPEEQIIDGAKVAHDNHIGTYCIVMSGRGPSDKEVDHISNTVRTIKSQHPQLKICACLGLTNDEQAKKLKSAGVDRYNHNINTSENYHDNVVTTHSYKDRTDTIELMKANNISPCSGVICGMGESNQDIVDMAFALKEMDADSIPINFLHPIKGTKFGSMDDLTPMKCLRIVALFRLINPTKEIRIAGGREVNLRSLQPLALKAANSIFVGDYLITGGQPNQLDYDMINDLGFEIDYDTCENKENKNDVSRANEGHHHHHH”, the “soluble on expression in E. coli” value is on record as “soluble”.

Take “MRKVRVGIWGFGAMGIGMANMILKKEGIEIVSVCSRSTSGKSMYDVLGIERGERPEVIINKNYEEVFREKSVDVVLLATDSFTKKAFDKIIFLLNRKINVISTAEQMAYPQADDADLAKKMDEVAKENGVSILGTGINPGFVLDLLVLALSGTCEEVTSIKAKRVNDLSPFGKSVMVEQGVGVTREEFIKGVEDKTIAGHVGFVESINMIADGLGWKLDKIEQTKEPIMTTVDRKSKYGEALAGNVAGCRQCGYGYVNGEVLIEMEHPQQIIPEAEGIKTGDYVSIKGIPNIDLQINPEIPGGVGTYAMIVNSIPLIINARPGLKTMLDIPVPRAIMGDIRNQIEVELEEESKAN”: the “soluble on expression in E. coli” value is listed as “not soluble”.

Take “MKIGDISIHYLNGGNTKMDGGAMFGVVPKPLWSKQYNANERNQINLPTHPILIQTAQYNLIIDAGIGNGKLSEKQLRNFGVDEESHIIADLANYNLTPKDIDYVLMTHMHFDHAAGLTDQAGHAIFENAIHVVQQDEWHEFIAPNIRSKSTYWDKNKGDYSNKLILFEKHFEPVPGIKMQHSGGHSFGHTIITIESQGDKAVHMGDIFPTTAHKNPLWVTAYDDYPMQSIREKERMIPYFIQQQYWFLFYHDENYFAVKYSDDGENIDAYILRETLVDNNLEHHHHHH”: the “soluble on expression in E. coli” value is “soluble”.

Turning to “MAQQTNVAGQKTEKQRKAPFRADHVGSLLRSVPVKEARQKKAAGEMTAEQLRDIENQEITRIVEKQKEIGLDVVTDGEFRRSWWHYDFLEGLDGVEPFIPAEGIQFHNTKTKARSIKVTGKLDFTSHPALGDYQFLHEIAGNATPKLTIPSPNMLFFGEKADKGIYDDQEEYFHDMAQAYKKAIKAFYDAGCRYLQLDDTSWSLFFEDKGREVVRALGGDPETLPAIFAKTINDAVADRPDDLTITMHICRGNFRSTWAASGGYDAVAETILDGLNLDGLFLEYDDDRSGNFDPLRFVKRKDLQIVLGLITSKYGELENPEDVNAVSMKPRVLSAWTSYALEHHHHHH”, the “soluble on expression in E. coli” value is listed as “not soluble”.

As for “ASVKAVGRVCYSALPSQAHDTLDLIDEGGPFPYSQDGVVFQNREGLLPAHSTGYYHEYTVITPGSPTRGARRIITGQQWQEDYYTADHYASFRRVDFAC”, the “soluble on expression in E. coli” value is given as “soluble”.
